According to patent US20220025010A1 (ANTAG THERAPEUTICS, published 2022):
*1 amine or outer side, *2 acyl side, *3 side chain or, on linkers, in order; H or OH if unused. Where no end group is shown, it is not given here. Side-chain parts run from the residue outwards. [ ]: non-standard residue; d: D form. The star is where a group is joined. C18 diacid = O=C(O)CCCCCCCCCCCCCCCCC(=O)*; C16 diacid = O=C(O)CCCCCCCCCCCCCCC(=O)*; γGlu = O=C(O)[C@H](CCC(=O)[*:2])N[*:1]; pGlu = O=C1CC[C@@H](C(=O)O)N1; AEEA = NCCOCCOCC(=O)O

B1: AT504 (peptide)
peptide: SGTFISDYSIAMDRIKQQDFVNWLLAQR
HELM: PEPTIDE1{S.G.T.F.I.S.D.Y.S.I.A.M.D.R.I.K.Q.Q.D.F.V.N.W.L.L.A.Q.R.[am]}|PEPTIDE2{[O=C(O)CCCCCCCCCCCCCCC(=O)[*:2]].[gGlu]}$PEPTIDE1,PEPTIDE2,16:R3-2:R2$$$V2.0; N-terminus assumed
SMILES: CC[C@H](C)[C@H](NC(=O)[C@H](CO)NC(=O)[C@H](Cc1ccc(O)cc1)NC(=O)[C@H](CC(=O)O)NC(=O)[C@H](CO)NC(=O)[C@@H](NC(=O)[C@H](Cc1ccccc1)NC(=O)[C@@H](NC(=O)CNC(=O)[C@@H](N)CO)[C@@H](C)O)[C@@H](C)CC)C(=O)N[C@@H](C)C(=O)N[C@@H](CCSC)C(=O)N[C@@H](CC(=O)O)C(=O)N[C@@H](CCCNC(=N)N)C(=O)N[C@H](C(=O)N[C@@H](CCCCNC(=O)CC[C@H](NC(=O)CCCCCCCCCCCCCCC(=O)O)C(=O)O)C(=O)N[C@@H](CCC(N)=O)C(=O)N[C@@H](CCC(N)=O)C(=O)N[C@@H](CC(=O)O)C(=O)N[C@@H](Cc1ccccc1)C(=O)N[C@H](C(=O)N[C@@H](CC(N)=O)C(=O)N[C@@H](Cc1c[nH]c2ccccc12)C(=O)N[C@@H](CC(C)C)C(=O)N[C@@H](CC(C)C)C(=O)N[C@@H](C)C(=O)N[C@@H](CCC(N)=O)C(=O)N[C@@H](CCCNC(=N)N)C(N)=O)C(C)C)[C@@H](C)CC
B2: AT502 (peptide)
peptide: GGTFISDYSIAMDRIKQQDFVNWLLAQR
HELM: PEPTIDE1{G.G.T.F.I.S.D.Y.S.I.A.M.D.R.I.K.Q.Q.D.F.V.N.W.L.L.A.Q.R.[am]}|PEPTIDE2{[O=C(O)CCCCCCCCCCCCCCC(=O)[*:2]].[gGlu]}$PEPTIDE1,PEPTIDE2,16:R3-2:R2$$$V2.0; N-terminus assumed
SMILES: CC[C@H](C)[C@H](NC(=O)[C@H](CO)NC(=O)[C@H](Cc1ccc(O)cc1)NC(=O)[C@H](CC(=O)O)NC(=O)[C@H](CO)NC(=O)[C@@H](NC(=O)[C@H](Cc1ccccc1)NC(=O)[C@@H](NC(=O)CNC(=O)CN)[C@@H](C)O)[C@@H](C)CC)C(=O)N[C@@H](C)C(=O)N[C@@H](CCSC)C(=O)N[C@@H](CC(=O)O)C(=O)N[C@@H](CCCNC(=N)N)C(=O)N[C@H](C(=O)N[C@@H](CCCCNC(=O)CC[C@H](NC(=O)CCCCCCCCCCCCCCC(=O)O)C(=O)O)C(=O)N[C@@H](CCC(N)=O)C(=O)N[C@@H](CCC(N)=O)C(=O)N[C@@H](CC(=O)O)C(=O)N[C@@H](Cc1ccccc1)C(=O)N[C@H](C(=O)N[C@@H](CC(N)=O)C(=O)N[C@@H](Cc1c[nH]c2ccccc12)C(=O)N[C@@H](CC(C)C)C(=O)N[C@@H](CC(C)C)C(=O)N[C@@H](C)C(=O)N[C@@H](CCC(N)=O)C(=O)N[C@@H](CCCNC(=N)N)C(N)=O)C(C)C)[C@@H](C)CC
B3: AT500 (peptide)
peptide: PGTFISDYSIAMDRIK(C16 diacid)QQDFVNWLLAQR-NH2
modifications: N-terminus assumed
SMILES: CC[C@H](C)[C@H](NC(=O)[C@H](CO)NC(=O)[C@H](Cc1ccc(O)cc1)NC(=O)[C@H](CC(=O)O)NC(=O)[C@H](CO)NC(=O)[C@@H](NC(=O)[C@H](Cc1ccccc1)NC(=O)[C@@H](NC(=O)CNC(=O)[C@@H]1CCCN1)[C@@H](C)O)[C@@H](C)CC)C(=O)N[C@@H](C)C(=O)N[C@@H](CCSC)C(=O)N[C@@H](CC(=O)O)C(=O)N[C@@H](CCCNC(=N)N)C(=O)N[C@H](C(=O)N[C@@H](CCCCNC(=O)CCCCCCCCCCCCCCC(=O)O)C(=O)N[C@@H](CCC(N)=O)C(=O)N[C@@H](CCC(N)=O)C(=O)N[C@@H](CC(=O)O)C(=O)N[C@@H](Cc1ccccc1)C(=O)N[C@H](C(=O)N[C@@H](CC(N)=O)C(=O)N[C@@H](Cc1c[nH]c2ccccc12)C(=O)N[C@@H](CC(C)C)C(=O)N[C@@H](CC(C)C)C(=O)N[C@@H](C)C(=O)N[C@@H](CCC(N)=O)C(=O)N[C@@H](CCCNC(=N)N)C(N)=O)C(C)C)[C@@H](C)CC
B4: AT498 (peptide)
peptide: SGTFISDYSIAMDRIK(C16 diacid)QQDFVNWLLAQR-NH2
modifications: N-terminus assumed
SMILES: CC[C@H](C)[C@H](NC(=O)[C@H](CO)NC(=O)[C@H](Cc1ccc(O)cc1)NC(=O)[C@H](CC(=O)O)NC(=O)[C@H](CO)NC(=O)[C@@H](NC(=O)[C@H](Cc1ccccc1)NC(=O)[C@@H](NC(=O)CNC(=O)[C@@H](N)CO)[C@@H](C)O)[C@@H](C)CC)C(=O)N[C@@H](C)C(=O)N[C@@H](CCSC)C(=O)N[C@@H](CC(=O)O)C(=O)N[C@@H](CCCNC(=N)N)C(=O)N[C@H](C(=O)N[C@@H](CCCCNC(=O)CCCCCCCCCCCCCCC(=O)O)C(=O)N[C@@H](CCC(N)=O)C(=O)N[C@@H](CCC(N)=O)C(=O)N[C@@H](CC(=O)O)C(=O)N[C@@H](Cc1ccccc1)C(=O)N[C@H](C(=O)N[C@@H](CC(N)=O)C(=O)N[C@@H](Cc1c[nH]c2ccccc12)C(=O)N[C@@H](CC(C)C)C(=O)N[C@@H](CC(C)C)C(=O)N[C@@H](C)C(=O)N[C@@H](CCC(N)=O)C(=O)N[C@@H](CCCNC(=N)N)C(N)=O)C(C)C)[C@@H](C)CC
B5: AT496 (peptide)
peptide: GGTFISDYSIAMDRIK(C16 diacid)QQDFVNWLLAQR-NH2
modifications: N-terminus assumed
SMILES: CC[C@H](C)[C@H](NC(=O)[C@H](CO)NC(=O)[C@H](Cc1ccc(O)cc1)NC(=O)[C@H](CC(=O)O)NC(=O)[C@H](CO)NC(=O)[C@@H](NC(=O)[C@H](Cc1ccccc1)NC(=O)[C@@H](NC(=O)CNC(=O)CN)[C@@H](C)O)[C@@H](C)CC)C(=O)N[C@@H](C)C(=O)N[C@@H](CCSC)C(=O)N[C@@H](CC(=O)O)C(=O)N[C@@H](CCCNC(=N)N)C(=O)N[C@H](C(=O)N[C@@H](CCCCNC(=O)CCCCCCCCCCCCCCC(=O)O)C(=O)N[C@@H](CCC(N)=O)C(=O)N[C@@H](CCC(N)=O)C(=O)N[C@@H](CC(=O)O)C(=O)N[C@@H](Cc1ccccc1)C(=O)N[C@H](C(=O)N[C@@H](CC(N)=O)C(=O)N[C@@H](Cc1c[nH]c2ccccc12)C(=O)N[C@@H](CC(C)C)C(=O)N[C@@H](CC(C)C)C(=O)N[C@@H](C)C(=O)N[C@@H](CCC(N)=O)C(=O)N[C@@H](CCCNC(=N)N)C(N)=O)C(C)C)[C@@H](C)CC

The binders below were run against T1, human GIP receptor (human, UniProt P48546 22-466) (assay: cell-based or functional assay).
T1 sequence (looked up): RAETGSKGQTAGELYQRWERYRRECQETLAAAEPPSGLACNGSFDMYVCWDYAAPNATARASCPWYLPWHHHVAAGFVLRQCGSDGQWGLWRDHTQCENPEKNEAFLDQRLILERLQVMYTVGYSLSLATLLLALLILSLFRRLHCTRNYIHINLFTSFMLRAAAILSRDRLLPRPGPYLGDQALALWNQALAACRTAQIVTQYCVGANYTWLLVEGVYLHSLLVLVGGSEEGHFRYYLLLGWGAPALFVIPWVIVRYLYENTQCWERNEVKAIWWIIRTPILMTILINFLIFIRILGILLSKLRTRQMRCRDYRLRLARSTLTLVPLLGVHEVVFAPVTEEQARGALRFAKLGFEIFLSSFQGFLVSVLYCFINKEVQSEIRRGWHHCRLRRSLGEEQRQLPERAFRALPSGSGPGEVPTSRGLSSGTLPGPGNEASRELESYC
For B1, the “CisBio cAMP agonism % Efficacy” value was 0%, the “CisBio cAMP antagonism % inhib” value was 85% and the “CisBio cAMP antagonism IC50” value was 39.8 nM. For the same binder, the “CisBio cAMP antagonism pIC50” value was 7.4, the “DiscoveRx cAMP antagonism % inhib” value was 90% and the “DiscoveRx cAMP antagonism IC50” value was 21 nM. For the same binder, the “DiscoveRx cAMP antagonism log IC50” value was -7.7 log M. For B2, the “CisBio cAMP agonism % Efficacy” value was 13%, the “CisBio cAMP antagonism % inhib” value was 65% and the “CisBio cAMP antagonism IC50” value was 293 nM. For the same binder, the “CisBio cAMP antagonism pIC50” value was 6.5, the “DiscoveRx cAMP agonism Emax” value was 5 and the “DiscoveRx cAMP antagonism % inhib” value was 85%. For the same binder, the “DiscoveRx cAMP antagonism IC50” value was 52 nM and the “DiscoveRx cAMP antagonism log IC50” value was -7.3 log M. [pGlu]GTFISDYSIAMDRIK([AEEA-AEEA-γGlu-C16 diacid])QQDFVNWLLAQR-NH2 [AT379] was tested, and the “CisBio cAMP agonism % Efficacy” value was 0%, the “CisBio cAMP antagonism % inhib” value was 95% and the “CisBio cAMP antagonism IC50” value was 21.5 nM. The “CisBio cAMP antagonism pIC50” value was 7.7, the “DiscoveRx cAMP antagonism % inhib” value was 96% and the “DiscoveRx cAMP antagonism IC50” value was 8 nM. The “DiscoveRx cAMP antagonism log IC50” value was -8.1 log M. For B3, the “CisBio cAMP agonism % Efficacy” value was 4%, the “CisBio cAMP antagonism % inhib” value was 77% and the “CisBio cAMP antagonism IC50” value was 66.8 nM. The “CisBio cAMP antagonism pIC50” value was 7.2, the “DiscoveRx cAMP antagonism % inhib” value was 90% and the “DiscoveRx cAMP antagonism IC50” value was 29 nM. For the same binder, the “DiscoveRx cAMP antagonism log IC50” value was -7.5 log M. In the case of B4, the “CisBio cAMP antagonism pIC50” value is reported as 7.9, the “DiscoveRx cAMP agonism Emax” value is reported as 6 and the “DiscoveRx cAMP antagonism log IC50” value is reported as -7.7 log M. With B5 the “CisBio cAMP agonism % Efficacy” value was 0%, the “CisBio cAMP antagonism % inhib” value was 100% and the “CisBio cAMP antagonism IC50” value was 39.8 nM. For the same binder, the “CisBio cAMP antagonism pIC50” value was 7.4, the “DiscoveRx cAMP antagonism % inhib” value was 100% and the “DiscoveRx cAMP antagonism IC50” value was 12 nM. For the same binder, the “DiscoveRx cAMP antagonism log IC50” value was -7.9 log M. [pGlu]GTFISDYSIAMDRIK(C18 diacid)QQDFVNWLLAQR-NH2 [AT391] was tested, and the “CisBio cAMP agonism % Efficacy” value was 0%, the “CisBio cAMP antagonism % inhib” value was 95% and the “CisBio cAMP antagonism IC50” value was 271 nM. The “CisBio cAMP antagonism pIC50” value was 6.6, the “DiscoveRx cAMP antagonism % inhib” value was 100% and the “DiscoveRx cAMP antagonism IC50” value was 10 nM. The “DiscoveRx cAMP antagonism log IC50” value was -8 log M. With [pGlu]GTFISDYSIAMDRIK([AEEA-AEEA-γGlu-C18 diacid])QQDFVNWLLAQR-NH2 [AT381] the “CisBio cAMP agonism % Efficacy” value was 5%, the “CisBio cAMP antagonism % inhib” value was 74% and the “CisBio cAMP antagonism IC50” value was 13.6 nM. For the same binder, the “CisBio cAMP antagonism pIC50” value was 7.9, the “DiscoveRx cAMP antagonism % inhib” value was 100% and the “DiscoveRx cAMP antagonism IC50” value was 38 nM. The “DiscoveRx cAMP antagonism log IC50” value was -7.4 log M.
